Measurements from PMC11783875.

Legend:
[1] = biological target: E69QE173Q-PsbS (Arabidopsis thaliana); assay: cross-linking; isolated thylakoids (60 ug Chl) in the recovery-1 state (darkness after illumination); 0.1 mM DTSSP for 1 min in reaction buffer pH 8.0; SDS-PAGE and western blot with PsbS antibody; densitometry of dimer against total PsbS
[2] = biological target: E69QE173Q-PsbS (Arabidopsis thaliana); assay: cross-linking; isolated thylakoids (60 ug Chl) in the dark-adapted state; 0.1 mM DTSSP for 1 min in reaction buffer pH 8.0; SDS-PAGE and western blot with PsbS antibody; densitometry of dimer against total PsbS
[3] = biological target: E69QE173Q-PsbS (Arabidopsis thaliana); assay: cross-linking; isolated thylakoids (60 ug Chl) in the light state (700 umol photons m^-2 s^-1); 0.1 mM DTSSP for 1 min in reaction buffer pH 8.0; SDS-PAGE and western blot with PsbS antibody; densitometry of dimer against total PsbS
[4] = biological target: E69QE173Q-PsbS (Arabidopsis thaliana); assay: cross-linking; isolated thylakoids (60 ug Chl) in the recovery-2 state (darkness after illumination); 0.1 mM DTSSP for 1 min in reaction buffer pH 8.0; SDS-PAGE and western blot with PsbS antibody; densitometry of dimer against total PsbS
[5] = biological target: H3-PsbS (PsbS with the H3 motif I74, Y75, E76 deleted) (Arabidopsis thaliana) (UniProt Q9XF91); assay: cross-linking; isolated thylakoids (60 ug Chl) in the light state (700 umol photons m^-2 s^-1); 0.1 mM DTSSP for 1 min in reaction buffer pH 8.0; SDS-PAGE and western blot with PsbS antibody; densitometry of dimer against total PsbS
[6] = biological target: H3-PsbS (PsbS with the H3 motif I74, Y75, E76 deleted) (Arabidopsis thaliana) (UniProt Q9XF91); assay: cross-linking; isolated thylakoids (60 ug Chl) in the recovery-2 state (darkness after illumination); 0.1 mM DTSSP for 1 min in reaction buffer pH 8.0; SDS-PAGE and western blot with PsbS antibody; densitometry of dimer against total PsbS
[7] = biological target: T1, PsbS protein (wild type, Arabidopsis thaliana) (Arabidopsis thaliana (endogenous in wild-type thylakoids)), Q9XF91; assay: cross-linking; isolated thylakoids (60 ug Chl) in the recovery-1 state (darkness after illumination); 0.1 mM DTSSP for 1 min in reaction buffer pH 8.0; SDS-PAGE and western blot with PsbS antibody; densitometry of dimer against total PsbS; conditions: remark: other sources report otherwise
T1 chain: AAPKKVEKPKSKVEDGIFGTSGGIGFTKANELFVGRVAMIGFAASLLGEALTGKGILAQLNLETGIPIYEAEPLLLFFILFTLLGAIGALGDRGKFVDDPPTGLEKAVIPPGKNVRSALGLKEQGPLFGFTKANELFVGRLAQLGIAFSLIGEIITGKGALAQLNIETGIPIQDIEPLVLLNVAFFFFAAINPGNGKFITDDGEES

[8] = biological target: T1, PsbS protein (wild type, Arabidopsis …); assay: cross-linking; isolated thylakoids (60 ug Chl) in the recovery-2 state (darkness after illumination); 0.1 mM DTSSP for 1 min in reaction buffer pH 8.0; SDS-PAGE and western blot with PsbS antibody; densitometry of dimer against total PsbS; conditions: remark: other sources report otherwise
[9] = biological target: T1, PsbS protein (wild type, Arabidopsis …); assay: cross-linking; isolated thylakoids (60 ug Chl) in the light state (700 umol photons m^-2 s^-1); 0.1 mM DTSSP for 1 min in reaction buffer pH 8.0; SDS-PAGE and western blot with PsbS antibody; densitometry of dimer against total PsbS; conditions: remark: other sources report otherwise
[10] = biological target: T1, PsbS protein (wild type, Arabidopsis …); assay: cross-linking; isolated thylakoids (60 ug Chl) in the dark-adapted state; 0.1 mM DTSSP for 1 min in reaction buffer pH 8.0; SDS-PAGE and western blot with PsbS antibody; densitometry of dimer against total PsbS; conditions: remark: other sources report otherwise

Question: Which cross-linked PsbS dimer content relative to total PsbS [1] does the source give for E69QE173Q-PsbS (natural protein) here?
Answer: 21.4%

Question: What about the cross-linked PsbS dimer content relative to total PsbS [2] of the same molecule?
Answer: 21.7%

Question: And the cross-linked PsbS dimer content relative to total PsbS [3]?
Answer: 18.6%

Question: And the cross-linked PsbS dimer content relative to total PsbS [4]?
Answer: 25.6%

Question: Which results are given for “H3-PsbS (PsbS with the H3 motif I74, Y75, E76 deleted) (from UniProt Q9XF91 60-265) (natural protein)”?
Answer: dimer-to-monomer transition, percent lower than the WT (% lower than WT) [5]: 50.8; total recovery to PsbS dimers, percent of the WT level (% of the WT level) [6]: 62.6

B1: PsbS protein (wild type, Arabidopsis thaliana), Q9XF91 60-265 (natural protein)
chain: AAPKKVEKPKSKVEDGIFGTSGGIGFTKANELFVGRVAMIGFAASLLGEALTGKGILAQLNLETGIPIYEAEPLLLFFILFTLLGAIGALGDRGKFVDDPPTGLEKAVIPPGKNVRSALGLKEQGPLFGFTKANELFVGRLAQLGIAFSLIGEIITGKGALAQLNIETGIPIQDIEPLVLLNVAFFFFAAINPGNGKFITDDGEES
Question: How did the cross-linked PsbS dimer content relative to total PsbS [7] turn out when B1 was run?
Answer: 39.5%

Question: And the cross-linked PsbS dimer content relative to total PsbS [8]?
Answer: 50.4%

Question: What about the cross-linked PsbS dimer content relative to total PsbS [9] of the same molecule?
Answer: 31.7%

Question: And the cross-linked PsbS dimer content relative to total PsbS [10]?
Answer: 44.9%
